Target: Human MMP-12(ΔC) (human, UniProt P39900 106-263)
Test: enzyme inhibition kinetics

Sequence of Human MMP-12(ΔC) (P39900 106-263, stated change not applied): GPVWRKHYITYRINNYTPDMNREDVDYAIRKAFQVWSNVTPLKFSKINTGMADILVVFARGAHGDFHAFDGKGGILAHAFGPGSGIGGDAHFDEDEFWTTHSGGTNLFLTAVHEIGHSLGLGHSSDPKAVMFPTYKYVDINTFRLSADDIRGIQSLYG

B1: N-TIMP-1, N-terminal inhibitory domain of tissue inhibitor of metalloproteinases 1 (active form, free alpha-amino group of Cys1) (domain or fragment)
chain: not shown
Ki: ~1.5 nM | stoichiometry N: 1.05 molar equivalents

From PMC2804306 (Biopolymers, 2008)
